Source: patent US11225644B2, “Cell culture method, cell aggregates, cell aggregation control agent, and medium” (THE UNIVERSITY OF TOKYO, priority 2015, dated 2022)

Tests used:
Assay type in all cases: cell-based, human
hiPS cells (TkDN4-M) [1] = experiment: Observation of cell aggregates after 1 day of rotation culture (Example 2); conditions: 10 μg/ml, FIG. 5; for uniformity of aggregate diameters compared to Comparative Example 2-1: mTeSR1, rotation culture 90 rpm for 1 day
Method: To a 12-well plate subjected to low-cell-adhesion treatment, 1 mL of mTeSR®1 was added, and hiPS cells (TkDN4-M, Stem Cell Bank, The University of Tokyo) ([…] cells/ml) provided in advance and, as a substance that inhibits a cell adhesion molecule(s) of the hiPS cells, recombinant E-cadherin (hRP-0339, manufactured by LD Biopharma) (10 μg/ml) were added at the same time, followed by performing rotation culture at a speed of 90 rpm for 1 day.
Aggregates were obtained in the same manner as in Example 2-1 except that a neutralizing antibody against E-cadherin (E-cadherin antibody MAB3199Z, manufactured by Millipore) ([…]) was used as the substance that inhibits a cell adhesion molecule(s) of the hiPS cells in Example 2-2.
Aggregates were obtained in the same manner as in Example 2-1 except that E-cadherin-Fc (10 μg/ml) was used as the substance that inhibits a cell adhesion molecule(s) of the hiPS cells in Example 2-3.
Morphology of cell aggregates in Examples 2-1 to 2-3 and Comparative Example 2-1 was observed using a phase-contrast microscope (product name. DM IRB; manufactured by LEICA).

hiPS cells (TkDN4-M) [2] = experiment: Diameters of cell aggregates in rotation suspension culture in mTeSR1 (Example 1)
Method: As pluripotent stem cells, hiPS cells (TkDN4-M, Stem Cell Bank, The University of Tokyo) were used. These cells were plated on the above culture plate at a density of 100,000 to 400,000 cells/well, and cultured for four days. The culture was carried out using, as a culture medium, 2 mL/well of mTeSR®1 (manufactured by StemCell Technologies). During the culture, medium replacement was carried out every day except for the day after the plating.
For detachment and collection of cells, TrypLE® select (manufactured by Life Technologies), which is a trypsin-like enzyme, was used. After removal of the culture liquid, TrypLE® select was added to the wells at 1 mL/well, and the plate was incubated at 37° C. for 2 to 5 minutes. Thereafter, TrypLE® select was removed, and mTeSR®1 supplemented with 10 μM Y-27632, which is a ROCK inhibitor, was added to the wells at 2 mL/well, followed by pipetting using a 1000-μL micropipette to detach the cells. The collected cell suspension was passed through a 40-μm cell strainer (BD) to collect the cells as single cells and/or microaggregates, to thereby obtain cells to be applied to suspension culture.
In the following Examples and Comparative Examples, morphology and sizes of cell aggregates during the culture period were observed and measured using a phase-contrast microscope (product name, DM IRB; manufactured by LEICA). […]

hiPS cells (TkDN4-M) [3] = experiment: Measurement of glucose consumption, mTeSR1 culture (Example 1); conditions: Day 5 of the culture
Method: (§1) […] The sizes of the aggregates 48 hours after the E-cadherin-Fc treatment were within the range of 300 to 700 μm. Subsequently, medium replacement was carried out, and culture was carried out for three days under the same conditions as described above except that E-cadherin-Fc was not added, to obtain aggregates. The sizes of the aggregates were within the range of 500 to 1000 μm.
(§2) During the whole culture period, 300 μL of the culture liquid was collected upon replacement of the medium, and the glucose concentration was analyzed using an enzyme-electrode type bioanalyzer (YS12950) to calculate changes in the glucose consumption.

hiPS cells (TkDN4-M) [4] = experiment: Measurement of live cell number after culture, mTeSR1 (Example 1); conditions: Day 5 of the culture
Method: as §1
(§3) After completion of the culture, the cells were dispersed into single cells using TrypLE® select, and the number of live cells was counted using trypan blue (manufactured by Life Technologies) and an eosinophil counter (manufactured by Tatai).

hiPS cells (TkDN4-M) [5] = experiment: Observation of cell aggregates in rotation suspension culture in Essential 8 (Example 3); conditions: Day 5 of the culture, Essential 8, E-cadherin-Fc 50 or 100 μg/ml for first 48 hours, 100 rpm
Method: (§4) To a 12-well plate subjected to low-cell-adhesion treatment, 1 mL of Essential 8® was added, and hiPS cells (TkDN4-M, Stem Cell Bank, The University of Tokyo) (2×10^5 cells/ml) provided in advance and, as a substance that inhibits a cell adhesion molecule(s) of the hiPS cells, E-cadherin-Fc (50 μg/ml) were added at the same time, followed by performing rotation culture at a speed of 100 rpm for 5 days. On Day 2 of the culture and thereafter (from 48 hours after the beginning of the culture), medium replacement was carried out every day with a medium to which E-cadherin-Fc was not added.
Aggregates were obtained in the same manner as in […] except that the concentration of E-cadherin-Fc in Example 3-1 was 100 μg/ml.
Morphology of cell aggregates in Examples 3-1 and 3-2, and Comparative Example 3-1 on Day 2 and Day 5 of the culture was observed using a phase-contrast microscope (product name, DM IRB; manufactured by LEICA). From the results shown in FIGS. 6 and 7, it can be seen that the size of the aggregates can be controlled also in cases where Essential 8® is used as the medium. On Day 5 of the culture, in the cases where E-cadherin-Fc was added, the size of the aggregates was larger than that on Day 2 of the culture, and the diameter of the aggregates was controlled at about 500 μm.

hiPS cells (TkDN4-M) [6] = experiment: Measurement of glucose consumption, Essential 8 culture (Example 3); conditions: Examples 3-1 and 3-2 (50, 100 μg/ml) vs Comparative Example 3-1, Essential 8, FIG. 8
Method: as §2, §4

hiPS cells (TkDN4-M) [7] = experiment: Measurement of number of cells, Essential 8 culture (Example 3); conditions: Examples 3-1 and 3-2 (50, 100 μg/ml) vs Comparative Example 3-1, Essential 8, after 5 days, FIG. 9
Method: as §3, §4

Molecule	uniformity of aggregate diameters compared to Comparative Example 2-1 (hiPS cells (TkDN4-M) [1])	morphology of cell aggregates compared to Comparative Example 1-1 (hiPS cells (TkDN4-M) [2]; 5, 10, 20, 50 and 100 μg/ml, Day 2 of the culture, FIG. 2)	suppression of excessive aggregation and formation of uniform aggregates (hiPS cells (TkDN4-M) [2]; concentration within 10 to 50 μg/ml, Day 2, simple rotation culture)	glucose consumption compared to Comparative Example 1-1 (hiPS cells (TkDN4-M) [3]; Example 1-1, 5 μg/ml)	glucose consumption compared to Comparative Example 1-1 (hiPS cells (TkDN4-M) [3]; Example 1-2, 10 μg/ml) [times]	glucose consumption compared to Comparative Example 1-1 (hiPS cells (TkDN4-M) [3]; Example 1-3, 20 μg/ml) [times]	glucose consumption compared to Comparative Example 1-1 (hiPS cells (TkDN4-M) [3]; Example 1-4, 50 μg/ml) [times]	glucose consumption compared to Comparative Example 1-1 (hiPS cells (TkDN4-M) [3]; Example 1-5, 100 μg/ml) [times]	number of cells compared to Comparative Example 1-1 (hiPS cells (TkDN4-M) [4]; Example 1-2, 10 μg/ml)	number of cells compared to Comparative Example 1-1 (hiPS cells (TkDN4-M) [4]; Example 1-3, 20 μg/ml)	number of cells compared to Comparative Example 1-1 (hiPS cells (TkDN4-M) [4]; Example 1-4, 50 μg/ml)	number of cells compared to Comparative Example 1-1 (hiPS cells (TkDN4-M) [4]; Example 1-5, 100 μg/ml)	aggregates compared to recombinant E-cadherin or neutralizing antibody against E-cadherin (hiPS cells (TkDN4-M) [1]; rotation culture for 1 day)	diameter of the aggregates (hiPS cells (TkDN4-M) [5])	glucose consumption (hiPS cells (TkDN4-M) [6])	number of cells (hiPS cells (TkDN4-M) [7])
recombinant E-cadherin: recombinant E-cadherin (hRP-0339, manufactured by LD Biopharma) (protein, UniProt P12830 155-882, looked up) Cadherin-1: DWVIPPISCPENEKGPFPKNLVQIKSNKDKEGKVFYSITGQGADTPPVGVFIIERETGWLKVTEPLDRERIATYTLFSHAVSSNGNAVEDPMEILITVTDQNDNKPEFTQEVFKGSVMEGALPGTSVMEVTATDADDDVNTYNAAIAYTILSQDPELPDKNMFTINRNTGVISVVTTGLDRESFPTYTLVVQAADLQGEGLSTTATAVITVTDTNDNPPIFNPTTYKGQVPENEANVVITTLKVTDADAPNTPAWEAVYTILNDDGGQFVVTTNPVNNDGILKTAKGLDFEAKQQYILHVAVTNVVPFEVSLTTSTATVTVDVLDVNEAPIFVPPEKRVEVSEDFGVGQEITSYTAQEPDTFMEQKITYRIWRDTANWLEINPDTGAISTRAELDREDFEHVKNSTYTALIIATDNGSPVATGTGTLLLILSDVNDNAPIPEPRTIFFCERNPKPQVINIIDADLPPNTSPFTAELTHGASANWTIQYNDPTQESIILKPKMALEVGDYKINLKLMDNQNKDQVTTLEVSVCDCEGAAGVCRKAQPVEAGLQIPAILGILGGILALLILILLLLLFLRRRAVVKEPLLPPEDDTRDNVYYYDEEGGGEEDQDFDLSQLHRGLDARPEVTRNDVAPTLMSVPRYLPRPANPDEIGNFIDENLKAADTDPTAPPYDSLLVFDYEGSGSEAASLSSLNSSESDKDQDYDYLNEWGNRFKKLADMYGGGEDD	more uniformly controlled diameters															
E-cadherin-Fc: fusion protein of mouse E-cadherin extracellular domain and mutated IgG1-Fc domain (T252M/T254S) (protein, left off: a dimerising Fc or GST) DWVIPPISCPENEKGEFPKNLVQIKSNRDKETKVFYSITGQGADKPPVGVFIIERETGWLKVTQPLDREAIAKYILYSHAVSSNGEAVEDPMEIVITVTDQNDNRPEFTQPVFEGFVAEGAVPGTSVMKVSATDADDDVNTYNAAIAYTIVSQDPELPHKNMFTVNRDTGVISVLTSGLDRESYPTYTLVVQAADLQGEGLSTTAKAVITVKDINDNAPVFNPSTYQGQVPENEVNARIATLKVTDDDAPNTPAWKAVYTVVNDPDQQFVVVTDPTTNDGILKTAKGLDFEAKQQYILHVRVENEEPFEGSLVPSTATVTVDVVDVNEAPIFMPAERRVEVPEDFGVGQEITSYTAREPDTFMDQKITYRIWRDTANWLEINPETGAIFTRAEMDREDAEHVKNSTYVALIIATDDGSPIATGTGTLLLVLLDVNDNAPIPEPRNMQFCQRNPQPHIITILDPDLPPNTSPFTAELTHGASVNWTIEYNDAAQESLILQPRKDLEIGEYKIHLKLADNQNKDQVTTLDVHVCDCEGTVNNCMKAGIVAAGLQV	more uniformly controlled diameters	better-controlled sizes	effective	about twice	2	2.5	2.5	2	about 1.8 times	about 2.5 times	about 3 times	about 2.3 times	larger aggregates having more uniform shapes	about 500 μm	excellent effect	excellent effect
